# Assay results published in article PMC7586906, “Development and characterization of specific anti‐Usutu virus chicken‐derived single chain variable fragment antibodies” (Protein Science : A Publication of the Protein Society, 2020).
# Values joined by “and” are separate entries in the source; they are usually repeats but may differ in a detail not shown here. Equal entries are not always repeated.
# How the values were obtained:
# [1] = target: T1, USUV strain Vienna-2001 whole virus (E protein on virions) (Usutu virus Vienna-2001, UniProt Q5WPU5, strain); assay: ELISA; virus ELISA: PEG-precipitated USUV Vienna-2001 (8.1 × 10^6 pfu in 50 μl) coated on the plate, blocked with 5% BSA, scFv 2.5-20 μg/ml for 1 hr at 37°C, detected by HRP anti-His, 450 nm; details: one partner purified
# T1 construct: envelope (E) protein of Usutu virus strain Vienna-2001, cut from the polyprotein, as it stands on whole virions coated on the plate; The assay used whole virus; The other proteins of the virion are not written; also called USUV Vienna-2001; source: virus expanded in C6/36 cells, precipitated with 8% PEG8000, resuspended in NTE buffer
# [2] = target: T2, soluble E (sE) protein of USUV strain Bologna-2009 (Usutu virus strain Bologna-2009, UniProt R4HE74, strain); assay: far-Western, overlay or dot blot; western blot at one amount: 0.5 μg of E protein DIII and 0.5 or 0.25 μg of sE per well on a 15% SDS gel, probed with 5 μg of scFv in 10 ml PBST, then mouse anti-HA and HRP goat anti-mouse; details: both partners purified
# T2 construct: also called sE of USUV; USUV sE; source: Drosophila S2 cells, provided by Prof; Karin Stiasny and Lena Roßbacher
# [3] = target: T3, USUV E protein DIII group B (Usutu virus, sequence group B, strain); assay: SPR; Biacore T200; scFv captured by its His-tag on a CM5 chip (His Capture Kit), E protein DIII as analyte in two-fold dilutions (31-2,000 nM; WNV also 100-32,000 nM), multi-cycle kinetics, 25°C, PBS with 0.05% Tween 20, 30 μl/min; 1:1 kinetic fit (legend of Figure 4), steady-state affinity model named for KD in the methods; details: both partners purified
# T3 construct: 103 amino acids, 11.0 kDa; also called USUV B; USUV DIII group B
# T3 chain: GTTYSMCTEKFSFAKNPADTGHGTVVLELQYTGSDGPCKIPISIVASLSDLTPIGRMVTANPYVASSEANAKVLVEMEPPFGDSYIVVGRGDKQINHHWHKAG
# [4] = target: T4, USUV E protein DIII group I (Usutu virus, sequence group I, strain); assay: as above; details: both partners purified
# T4 construct: 103 amino acids, 10.9 kDa; also called USUV I; USUV DIII group I
# T4 chain: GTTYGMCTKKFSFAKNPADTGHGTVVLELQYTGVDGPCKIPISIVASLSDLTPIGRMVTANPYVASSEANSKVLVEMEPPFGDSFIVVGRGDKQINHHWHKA
# [5] = target: T5, WNV E protein DIII (West Nile virus NY99 (also called 2741), strain); assay: as above; details: both partners purified
# T5 construct: domain III of the envelope (E) protein of West Nile virus; 103 amino acids, 10.9 kDa; also called WNV DIII; WNV E protein DIII NY99 strain
# T5 chain: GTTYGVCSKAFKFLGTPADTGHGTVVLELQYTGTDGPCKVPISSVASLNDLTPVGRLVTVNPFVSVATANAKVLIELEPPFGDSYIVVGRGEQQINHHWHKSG
# [6] = target: T6, soluble E (sE) protein of WNV strain NY-1999 (West Nile virus NY-1999 (NY99), UniProt Q9Q6P4, strain); assay: far-Western, overlay or dot blot; western blot at one amount: 0.5 μg of E protein DIII and 0.5 or 0.25 μg of sE per well on a 15% SDS gel, probed with 5 μg of scFv in 10 ml PBST, then mouse anti-HA and HRP goat anti-mouse; details: both partners purified
# T6 construct: whole ectodomain of the envelope (E) protein of West Nile virus strain NY-1999 (NY99); also called sE of WNV; WNV NY99 sE; source: Drosophila S2 cells, provided by Prof; Karin Stiasny and Lena Roßbacher
Binder,binding result [1],binding result [2],Kd [3],koff [3],kon [3],Kd [4],koff [4],kon [4],Kd [5] [nM],koff [5],kon [5],binding result [6]
"scFv G1 (scFv, V domains shown, chicken light chain variable region (V lambda) of G1, N-terminal part of the scFv; long linker between V lambda and VH; From a chicken immune phage display library in pComb3XSS; Could not be held stably on the SPR chip; source: E. coli TOP10, purified (IMAC, HisTrap FF); not shown: His6, C-terminal, kept; HA, C-terminal, kept) VH: AVTLDESGGGLQTPGGGLSLVCKASGFDFSRYGMNWVRQAPGKGLEWVAGISPDGSGTWYATAVKGRATISRDNGQSTVRLQLNNLRAEDTATYYCTRGNGDSFDAWGHGTEVIVSS VL: ALTQPSSVSANLGGTVKITCSGGSYSYGWYQQKSPGSAPVTVIYYNDKRPSDIPSRFSGSKSGSTGTLTITGVQADDEAVYFCGGFDSSAGYVGIFGAGTTLTVL",binds,binds,,,,,,,,,,
"scFv D2.2 (scFv, V domains shown, chicken light chain variable region (V lambda) of D2.2, N-terminal part of the scFv; long linker between V lambda and VH; chicken heavy chain variable region (VH) of D2.2; From a chicken immune phage display library in pComb3XSS; source: E. coli TOP10, purified (IMAC, HisTrap FF); not shown: His6, C-terminal, kept; HA, C-terminal, kept) VH: AVTLDESGGGLQTPGGALSLVCKGSGFTFSSHAMMWVRQAPGKGLEWVAGISRDGSTYYGAAVKGRATISRDDGQSTVRLQLNNLRAEDTGTYFCAKDVYGYCDTISGCEAGTIDAWGHGTEVIVSS VL: ALTQPSSVSANLGETVKITCSGSSGSYGWYQQKSPGSAPVTVIYYNDKRPSDIPSRFSGSKSGSTGTLTITGVQADDEAVYFCGSEDSSSTYAGIFGAGTTLTVL",binds,,230 nM and 250 nM,0.074 s⁻¹ and 0.069 s⁻¹,326000 M⁻¹ s⁻¹ and 273000 M⁻¹ s⁻¹,,,,,,,
"scFv A9 (scFv, V domains shown, chicken light chain variable region (V lambda) of A9, N-terminal part of the scFv; long linker between V lambda and VH; chicken heavy chain variable region (VH) of A9; From a chicken immune phage display library in pComb3XSS; also called cross-reactive scFv; source: E. coli TOP10, purified (IMAC, HisTrap FF); not shown: His6, C-terminal, kept; HA, C-terminal, kept) VH: AVTLDESGGGLQTPGGTLSLVCKASGFTFSSVNMFWVRQAPGKGLEYVASISNTGSSTNYGAAVKGRATISRDNGQSTVRLQLNNLRAEDTATYFCAKDAYGYSFTVTPGYTIDAWGHGTEVIVSS VL: ALTQPSSVSANLGGTVKITCSGGGGSYGWYQQKSPGSAPVTVIYENTKRPSNIPSRFSGSKSGSTSTLTITGVQAEDEAVYYCGSTDNNNIFGAGTTLTVL",binds,binds,410 nM and 360 nM,0.062 s⁻¹ and 0.059 s⁻¹,152000 M⁻¹ s⁻¹ and 166000 M⁻¹ s⁻¹,290 nM and 300 nM,0.05 s⁻¹ and 0.048 s⁻¹,170000 M⁻¹ s⁻¹ and 168000 M⁻¹ s⁻¹,100,0.105 s⁻¹ and 0.094 s⁻¹,1.04e+06 M⁻¹ s⁻¹ and 970000 M⁻¹ s⁻¹,binds
"scFv A8 (scFv, V domains shown, chicken light chain variable region (V lambda) of A8, N-terminal part of the scFv; long linker between V lambda and VH; chicken heavy chain variable region (VH) of A8; From a chicken immune phage display library in pComb3XSS; source: E. coli TOP10, purified (IMAC, HisTrap FF); not shown: His6, C-terminal, kept; HA, C-terminal, kept) VH: AVTLDESGGGLQTPGGGLSLVCKASGFTMSSYHMGWVRQAPGKGLEYVVGIDNTGRYTDYGAAVKGRATISRDNGQSTLRLQLNNLRAEDTGTYFCAKSAYLGRGCWDAELCAGEIDAWGHGTEVIVSS VL: ALTQPSSVSANLGGTVKITCSGGYSGYGWYQQKSPGSAPVTLIYDNTKRPSDIPSRFSGSKSGSTGTLTITGVQAEDEAVYYCGSGDSRNYVGIFGAGTTLTVR",binds,,100 nM,0.002 s⁻¹,20000 M⁻¹ s⁻¹,60 nM,0.001 s⁻¹,19800 M⁻¹ s⁻¹,,,,
"scFv A12 (scFv, V domains shown, chicken light chain variable region (V lambda) of A12, N-terminal part of the scFv; long linker between V lambda and VH; chicken heavy chain variable region (VH) of A12; From a chicken immune phage display library in pComb3XSS; source: E. coli TOP10, purified (IMAC, HisTrap FF); not shown: His6, C-terminal, kept; HA, C-terminal, kept) VH: AVTLDESGGGLQTPGGALSLVCKASGFTFSSYHMGWVRQAPGKGLEYVAGIDNTGRYTDYGAAVKGRATISRDNGQSTLRLQLNNLRAEDTGTYFCAKSAYLGRGCWGAELCAGEIDTWGHGTEVIVSS VL: ALTQPSSVSANPGETVQITCSGSSNKYGNNYGWYQQKSPGSAPVTVIYDDDKRPSDIPPRFSGSKSGSTNTLTITGVQADDEAVYFCGAYDNSDSGIFGAGTALTVL",binds,,300 nM and 290 nM,0.012 s⁻¹ and 0.01 s⁻¹,39600 M⁻¹ s⁻¹ and 34200 M⁻¹ s⁻¹,140 nM and 130 nM,0.007 s⁻¹ and 0.006 s⁻¹,48600 M⁻¹ s⁻¹ and 46600 M⁻¹ s⁻¹,,,,
